Measurements taken from patent US20110172153A1.
pIC50: −log10 of the molar value.

Key:
[1] = molecular target: rat parathyroid hormone receptor (PTHR) (UniProt P25961); assay: competition binding; R0 conformation
[2] = molecular target: rat parathyroid hormone receptor (PTHR) (UniProt P25961); assay: competition binding; RG conformation

Chain of rat parathyroid hormone receptor (PTHR) (P25961 27-591): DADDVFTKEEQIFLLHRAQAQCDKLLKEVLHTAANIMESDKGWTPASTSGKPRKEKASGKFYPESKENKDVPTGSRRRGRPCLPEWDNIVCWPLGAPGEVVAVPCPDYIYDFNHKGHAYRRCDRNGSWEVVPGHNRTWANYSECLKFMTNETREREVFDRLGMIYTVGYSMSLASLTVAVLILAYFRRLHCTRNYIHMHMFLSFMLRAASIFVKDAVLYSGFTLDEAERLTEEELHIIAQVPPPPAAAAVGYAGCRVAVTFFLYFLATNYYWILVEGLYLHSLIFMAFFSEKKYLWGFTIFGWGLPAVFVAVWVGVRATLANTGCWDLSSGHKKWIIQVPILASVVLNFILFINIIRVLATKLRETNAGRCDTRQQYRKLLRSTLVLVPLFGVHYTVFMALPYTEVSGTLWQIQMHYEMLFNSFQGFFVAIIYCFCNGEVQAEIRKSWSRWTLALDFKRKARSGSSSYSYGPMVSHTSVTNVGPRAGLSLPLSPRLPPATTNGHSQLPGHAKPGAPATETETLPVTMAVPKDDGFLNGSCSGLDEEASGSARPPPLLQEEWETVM

pIC50 [1]	pIC50 [2]	Substance
6.71	8.32	H5,E19,Mc-hPTH(1-14)/rP(15-36)OH
7.59	9.49	H5,Mc-hPTH(1-34)OH
8.89	9.09	Mc-PTH(1-14)/PTHrP(15-36)OH
8.85	9.09	Mc-PTH(1-18)/PTHrP(19-36)OH
7.69	9.31	[A^23,E^19],Mc-hPTH(1-34)OH
8.63	9.24	[E^19],Mc-hPTH(1-34)OH

Further lines, the substance ahead of its results:

Substance	pIC50 [1]	pIC50 [2]
H5,E19,Mc-hPTH(1-34)OH	5.86	8.85
H5,Mc-hPTH(1-14)/rP(15-36)OH	8.05	8.77
Mc-PTH(1-11)/PTHrP(12-36)OH	8.74	9.14
Mc-hPTH(1-34)OH	8.72	9.25
[I^5]-PTHrP(1-36)	8.64	8.99
hPTHrP(1-36)	7.70	9.36
